Measured values as given in the supplement of paper PMC9112550, “Optimization of the antimicrobial peptide Bac7 by deep mutational scanning” (BMC Biology, 2022).

Tested on: Escherichia coli TOP10
Experiment: shrunken log2 fold change of peptide-encoding DNA abundance (4.5 h post-induction vs induction); higher = less antimicrobial activity (less host growth inhibition)
Settings: time post-induction: 4.5 h; library: site-saturation at positions 5, 18, 19, 20
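Note: peptides expressed intracellularly from a pBAD plasmid library in pooled LB shake-flask culture, induced with 0.3% L-arabinose, DNA abundance read by NGS, three biological replicates, DESeq2 with apeglm shrinkage.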

Sequence	shrunken log2 fold change
RRIRGRPPRLPRPRPRPLMFPRP	0.603
RRIRNRPPRLPRPRPRPPQFPRP	0.334
RRIRFRPPRLPRPRPRPDDTPRP	0.0516
RRIRTRPPRLPRPRPRPVGWPRP	0.753
RRIRMRPPRLPRPRPRPWILPRP	-0.201
RRIRIRPPRLPRPRPRPWNFPRP	-0.00674
RRIRSRPPRLPRPRPRPIWFPRP	0.112
RRIRKRPPRLPRPRPRPCYDPRP	-0.0387
RRIRPRPPRLPRPRPRPHSIPRP	-0.418
RRIRKRPPRLPRPRPRPNVQPRP	0.179
RRIRVRPPRLPRPRPRPIPMPRP	-0.094
RRIRCRPPRLPRPRPRPFVRPRP	-0.141
RRIRKRPPRLPRPRPRPNLHPRP	-0.184
RRIRRRPPRLPRPRPRPCHCPRP	-0.0688
RRIRGRPPRLPRPRPRPIDLPRP	0.00416
RRIRERPPRLPRPRPRPMFMPRP	-0.468
RRIRCRPPRLPRPRPRPLNFPRP	-0.0754
RRIRGRPPRLPRPRPRPKMGPRP	1.21
RRIRFRPPRLPRPRPRPVWRPRP	0.441
RRIRKRPPRLPRPRPRPEYHPRP	-0.0122
RRIRFRPPRLPRPRPRPMGHPRP	-0.184
RRIRLRPPRLPRPRPRPMMMPRP	-0.114
RRIRARPPRLPRPRPRPWTAPRP	0.871
RRIRPRPPRLPRPRPRPGCDPRP	0.309
RRIRARPPRLPRPRPRPKVSPRP	0.669

Sequence	shrunken log2 fold change
RRIRTRPPRLPRPRPRPADGPRP	-0.0563
RRIRGRPPRLPRPRPRPQHSPRP	-0.0223
RRIRMRPPRLPRPRPRPKDIPRP	-0.0934
RRIRIRPPRLPRPRPRPKADPRP	0.204
RRIRCRPPRLPRPRPRPIIVPRP	-0.425
RRIRLRPPRLPRPRPRPQVAPRP	0.0825
RRIRSRPPRLPRPRPRPRARPRP	0.408
RRIRMRPPRLPRPRPRPIMIPRP	-0.16
RRIRYRPPRLPRPRPRPTCDPRP	-0.424
RRIRCRPPRLPRPRPRPAFLPRP	-0.214
RRIRIRPPRLPRPRPRPFSSPRP	-0.181
RRIRKRPPRLPRPRPRPRHRPRP	0.264
RRIRARPPRLPRPRPRPDYDPRP	0.0454
RRIRERPPRLPRPRPRPLKDPRP	-0.0646
RRIRARPPRLPRPRPRPCDAPRP	0.344
RRIRERPPRLPRPRPRPRRYPRP	-0.184
RRIRYRPPRLPRPRPRPYHDPRP	-0.386
RRIRMRPPRLPRPRPRPHMMPRP	-0.135
RRIRVRPPRLPRPRPRPQQPPRP	0.124
RRIRRRPPRLPRPRPRPGHWPRP	0.0797
RRIRCRPPRLPRPRPRPVMCPRP	-0.127
RRIRHRPPRLPRPRPRPDFKPRP	-0.127
RRIRCRPPRLPRPRPRPNKLPRP	-0.283
RRIRNRPPRLPRPRPRPLFMPRP	-0.235
RRIRMRPPRLPRPRPRPCHHPRP	-0.353

Sequence	shrunken log2 fold change
RRIRWRPPRLPRPRPRPSSLPRP	0.449
RRIRCRPPRLPRPRPRPEIFPRP	-0.422
RRIRWRPPRLPRPRPRPLMFPRP	-0.122
RRIRFRPPRLPRPRPRPWTSPRP	-0.0445
RRIRYRPPRLPRPRPRPSATPRP	-0.104
RRIRKRPPRLPRPRPRPFHIPRP	-0.025
RRIRARPPRLPRPRPRPALTPRP	0.642
RRIRSRPPRLPRPRPRPSQLPRP	-0.302
RRIRHRPPRLPRPRPRPPGHPRP	0.184
RRIRARPPRLPRPRPRPIVGPRP	-0.0201
RRIRSRPPRLPRPRPRPPFEPRP	0.518
RRIRPRPPRLPRPRPRPMEYPRP	-0.00176
RRIRGRPPRLPRPRPRPGLLPRP	0.791
RRIRKRPPRLPRPRPRPCSHPRP	0.0663
RRIRWRPPRLPRPRPRPSVGPRP	0.149
RRIRLRPPRLPRPRPRPIGGPRP	0.0938
RRIRKRPPRLPRPRPRPFRAPRP	0.201
RRIRMRPPRLPRPRPRPMPQPRP	4.29
RRIRIRPPRLPRPRPRPIYKPRP	-0.517
RRIRQRPPRLPRPRPRPNHKPRP	-0.493
RRIRFRPPRLPRPRPRPQINPRP	-0.239
RRIRTRPPRLPRPRPRPMCHPRP	-0.228
RRIRNRPPRLPRPRPRPPQCPRP	-0.000221
RRIRIRPPRLPRPRPRPWYCPRP	-0.0341
RRIRCRPPRLPRPRPRPMDYPRP	-0.181

Sequence	shrunken log2 fold change
RRIRRRPPRLPRPRPRPTQHPRP	0.691
RRIRTRPPRLPRPRPRPNDEPRP	-0.0966
RRIRGRPPRLPRPRPRPPIWPRP	0.67
RRIRSRPPRLPRPRPRPNKYPRP	-0.653
RRIRGRPPRLPRPRPRPDNWPRP	0.347
RRIRQRPPRLPRPRPRPQIFPRP	-0.0511
RRIRERPPRLPRPRPRPRNYPRP	-0.491
RRIRCRPPRLPRPRPRPMDFPRP	-0.151
RRIRDRPPRLPRPRPRPFSDPRP	-0.016
RRIRPRPPRLPRPRPRPPNNPRP	0.414
RRIRNRPPRLPRPRPRPCLEPRP	0.000258
RRIRMRPPRLPRPRPRPRAKPRP	1.25
RRIRMRPPRLPRPRPRPNDRPRP	0.141
RRIRIRPPRLPRPRPRPYCCPRP	-0.476
RRIRLRPPRLPRPRPRPSHCPRP	-0.117
RRIRDRPPRLPRPRPRPMREPRP	-0.0167
RRIRERPPRLPRPRPRPAGEPRP	0.0657
RRIRYRPPRLPRPRPRPVWTPRP	0.0188
RRIRGRPPRLPRPRPRPHRQPRP	0.0397
RRIRKRPPRLPRPRPRPILSPRP	0.00626
RRIRHRPPRLPRPRPRPHWMPRP	-0.785
RRIRTRPPRLPRPRPRPWFQPRP	-0.195
RRIRWRPPRLPRPRPRPMSYPRP	-0.206
RRIRHRPPRLPRPRPRPDTHPRP	-1.19
RRIRSRPPRLPRPRPRPIPCPRP	-0.297

Sequence	shrunken log2 fold change
RRIRCRPPRLPRPRPRPTWTPRP	0.362
RRIRNRPPRLPRPRPRPIWLPRP	0.0648
RRIRSRPPRLPRPRPRPEVKPRP	0.287
RRIRIRPPRLPRPRPRPPLGPRP	0.164
RRIRERPPRLPRPRPRPVVHPRP	-0.0247
RRIRRRPPRLPRPRPRPVFDPRP	0.348
RRIRARPPRLPRPRPRPKRVPRP	0.455
RRIRYRPPRLPRPRPRPMTKPRP	0.0153
RRIRDRPPRLPRPRPRPQVDPRP	-0.0156
RRIRGRPPRLPRPRPRPYKEPRP	-0.375
RRIRWRPPRLPRPRPRPQFQPRP	-0.523
RRIRVRPPRLPRPRPRPNSTPRP	-0.515
RRIRGRPPRLPRPRPRPMYNPRP	-0.104
RRIRHRPPRLPRPRPRPCIEPRP	-0.00547
RRIRFRPPRLPRPRPRPTVKPRP	-0.163
RRIRIRPPRLPRPRPRPLILPRP	-0.895
RRIRKRPPRLPRPRPRPCYLPRP	-0.427
RRIRHRPPRLPRPRPRPAEKPRP	-0.0153
RRIRTRPPRLPRPRPRPTNCPRP	0.216
RRIRWRPPRLPRPRPRPPQYPRP	0.0672
RRIRQRPPRLPRPRPRPLKPPRP	0.0722
RRIRQRPPRLPRPRPRPTASPRP	-0.0116
RRIRYRPPRLPRPRPRPKMLPRP	0.0981
RRIRCRPPRLPRPRPRPCCWPRP	0.103
RRIRIRPPRLPRPRPRPGYTPRP	-0.206

Sequence	shrunken log2 fold change
RRIRSRPPRLPRPRPRPHEWPRP	0.147
RRIRCRPPRLPRPRPRPIPFPRP	-0.436
RRIRLRPPRLPRPRPRPFNEPRP	-0.255
RRIRFRPPRLPRPRPRPTCTPRP	-0.0787
RRIRIRPPRLPRPRPRPHCKPRP	-0.147
RRIRCRPPRLPRPRPRPLFWPRP	0.153
RRIRSRPPRLPRPRPRPPFIPRP	-0.252
RRIRGRPPRLPRPRPRPDEGPRP	-0.001
RRIRDRPPRLPRPRPRPYSYPRP	-0.0279
RRIRNRPPRLPRPRPRPIINPRP	-0.265
RRIRKRPPRLPRPRPRPRFWPRP	1.42
RRIRSRPPRLPRPRPRPIRTPRP	-0.207
RRIRNRPPRLPRPRPRPHYWPRP	-0.388
RRIRWRPPRLPRPRPRPTMIPRP	-0.0926
RRIRHRPPRLPRPRPRPVKEPRP	-0.00992
RRIRKRPPRLPRPRPRPMDRPRP	0.0586
RRIRCRPPRLPRPRPRPTDIPRP	-0.623
RRIRGRPPRLPRPRPRPGCHPRP	0.549
RRIRARPPRLPRPRPRPGEDPRP	0.814
RRIRHRPPRLPRPRPRPLSYPRP	-0.895
RRIRKRPPRLPRPRPRPAWCPRP	0.0965
RRIRVRPPRLPRPRPRPRWHPRP	0.217
RRIRRRPPRLPRPRPRPCLIPRP	-0.38
RRIRGRPPRLPRPRPRPFPNPRP	0.26
RRIRNRPPRLPRPRPRPGNFPRP	-0.0496
